Earlier results as cited in patent US20160136246A1, “Novel Uses of GLP-1 Receptor Agonists in Patients Treated with Insulin and/or Suffering from Type 1 Diabetes” (NOVO NORDISK A/S, priority 2013, published 2016).

Settings: in humans; cited from earlier work

Which plasma half-life does the source give for “GLP-1: glucagon-like peptide-1, a product of proglucagon, gut hormone” here?
The plasma half-life was 2 min.
